These results are taken from patent WO2023190852A1.

The target in this experiment is RBD derived from the Omicron strain (BA.1 strain; B.1.1.529) (SARS-CoV-2).
The substance REGN10987 (antibody) returned a binding inhibition rate (%) below 80%. As for ADG2 (antibody), the binding inhibition rate (%) is below 80%. Substance LY_CoV16 (antibody) came in with a binding inhibition rate (%) below 80%. Next, LY_CoV555 (antibody): below 80%. In turn, AZD8895 (antibody) showed a binding inhibition rate (%) below 80%.

REGN10933 (antibody) yielded a binding inhibition rate (%) below 80%. S309 (antibody): the binding inhibition rate (%) is below 80%. AZD1061 (antibody) returned a binding inhibition rate (%) below 80%.
